Experiments:
[1] = molecular target: humVEGF1-165 homodimer (recombinant full-length humanVEGF) (human) (UniProt P15692); test: ELISA titer on coated humVEGF1-165, 5000 ng/mL
[2] = molecular target: ratVEGF1-165 homodimer (recombinant full-length ratVEGF) (rat) (UniProt P16612); test: ELISA on coated antigen
Chain of ratVEGF1-165 homodimer (recombinant full-length ratVEGF) (rat) (P16612 27-165, form in doubt): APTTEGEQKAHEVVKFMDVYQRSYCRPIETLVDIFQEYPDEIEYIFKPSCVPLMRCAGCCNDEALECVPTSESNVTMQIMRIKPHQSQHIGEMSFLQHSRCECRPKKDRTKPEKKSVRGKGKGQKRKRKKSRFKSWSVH

Chain of humVEGF1-165 homodimer (recombinant full-length humanVEGF) (human) (P15692 other isoform, or with tags, fused parts or gaps): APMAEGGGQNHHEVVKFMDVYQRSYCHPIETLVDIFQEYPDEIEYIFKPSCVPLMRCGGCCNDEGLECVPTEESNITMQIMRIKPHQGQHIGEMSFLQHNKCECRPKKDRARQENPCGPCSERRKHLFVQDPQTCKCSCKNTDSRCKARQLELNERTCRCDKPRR

Titer (-10log dilution) [1] | ELISA signal at dilution 1/100 [2] | ELISA signal at dilution 1/300 [2] | ELISA signal at dilution 1/1000 [2] | titer endblood [2] [ng/mL] | Substance
4.2 | – | – | – | – | BioVision™ (control Ab) (antibody)
– | 236 | 148 | 103 | < 1000 | Avastin™ (Bevacizumab) (antibody)

Reference: patent publication US20120231000A1
